Measured values reported in the RNAGym collection of RNA variant scans (doi:10.7554/elife.90254).

B1: OR4K15 (parent)
chain: GUUAACGGUCAUAGGCCAUGGAAACUAGGAGCACCAUUUCGCUGCCAGUGAAGAAAUGAACAAAGAAAAUCUGGGCCAGGCAGGCAUCAAAAGAAAUAGUCUUGCGCUCAACCAGAAAGUCUGUAAUCAUUUUAAGGGUA

Variants of: B1
Assay: self-cleavage, relative activity (ratio to wild type); higher = more cleavage; in vitro, sequencing; the parent is a self-cleaving ribozyme

Variant	self-cleavage
GUUAACGGUCAUAGGCCAUGGAUACUAGGAGCACCAUUUCGCUGCCAGUGAAGAAAUGAACAAAGAAAAUCUGGGCCAGGCAGGCAUCAAAAAAAAUAGUCUUGCGCUCAACCAGAAAGUCUGUAAUCAUUUUAAGGGUA [A23U G93A]	1.85
GUUAACGGUCAUAGGCCAUGGAUACUAGGAGCACCAUUUCGCUGCCAGUGAAGAAAUGAACAAAGAAAAUCUGGGCCAGGCAGGCAUCAAAAGAAAUAGUCUUGCGCUCAACCAGAAAGUCUGCAAUCAUUUUAAGGGUA [A23U U124C]	1.64
GUUAACGGUCAUAGGCCAUGGAACCUAGGAGCACCAUUUCGCUGCCGGUGAAGAAAUGAACAAAGAAAAUCUGGGCCAGGCAGGCAUCAAAAGAAAUAGUCUUGCGCUCAACCAGAAAGUCUGUAAUCAUUUUAAGGGUA [A24C A47G]	1.46
GUUAACGGUCAUAGGCCAUGGAUACUAGGAGCACCAUUUCGCUGCCAGUGAAGAAAUGAACAAAGAAAAUCUGGGCCAGGCAGGCAUCAAAAGAAAUAGUCUUGCGCCCAACCAGAAAGUCUGUAAUCAUUUUAAGGGUA [A23U U108C]	0.01
GUUAACGGUCAUAGGCCAUGGAACCUGGGAGCACCAUUUCGCUGCCAGUGAAGAAAUGAACAAAGAAAAUCUGGGCCAGGCAGGCAUCAAAAGAAAUAGUCUUGCGCUCAACCAGAAAGUCUGUAAUCAUUUUAAGGGUA [A24C A27G]	1.25
GUUAACGGUCAUAGGCCAUGGAUACUAGGAGCACCAUUUCGCUGCCAGUGAAGAAAUGAACAAAGAAAAUCUGGGCCAGGCAGGCAUCAAAAGAAAUAGUCUUGCGCUCAACCAGAAAGUCUGUAAUCAUUUUAGGGGUA [A23U A135G]	1.35
GUUAACGGUCAUAGGCCAUGGAUACUAGGAGCACCAUUUCGCUGCCAGUGAAGAAAUGAACAAAGAAAAUCUGGGCCAGGCAGGCAUCAAAAGAAAUAGUCAUGCGCUCAACCAGAAAGUCUGUAAUCAUUUUAAGGGUA [A23U U102A]	1.09
GUUAACGGUCAUAGGCCAUGGAUACUAGGAGCACCAUUUCGCUGCCAGUGAAGAAAUGAACAAAGAAAAUCUGGGCCAGGCAGGCAUCAAAAGAAAGAGUCUUGCGCUCAACCAGAAAGUCUGUAAUCAUUUUAAGGGUA [A23U U97G]	1.35
GUUAACGGUCAUAGGCCAUGGAACCUAGGAGCACCAUUUCGCUGCCAGUGAAGAAAUGAACAAAGAAAGUCUGGGCCAGGCAGGCAUCAAAAGAAAUAGUCUUGCGCUCAACCAGAAAGUCUGUAAUCAUUUUAAGGGUA [A24C A69G]	1.24
GUUAACGGUCAUAGGCCAUGGAACCUAGGAGCACCAUUUCGCUGCCAGUGAAGAAGUGAACAAAGAAAAUCUGGGCCAGGCAGGCAUCAAAAGAAAUAGUCUUGCGCUCAACCAGAAAGUCUGUAAUCAUUUUAAGGGUA [A24C A56G]	2.01
GUUAACGGUCAUAGGCCAUGGAACCUAGGAGCACCAUUUCGCUGCCAGUGAAGAAAUGAACAAAGAAAAUCUGGGCCAGGCAGGCAUCAAGAGAAAUAGUCUUGCGCUCAACCAGAAAGUCUGUAAUCAUUUUAAGGGUA [A24C A91G]	1.24
GUUAACGGUCAUAGGCCAUGGAUACCAGGAGCACCAUUUCGCUGCCAGUGAAGAAAUGAACAAAGAAAAUCUGGGCCAGGCAGGCAUCAAAAGAAAUAGUCUUGCGCUCAACCAGAAAGUCUGUAAUCAUUUUAAGGGUA [A23U U26C]	1.23
GUUAACGGUCAUAGGCCAUGGAUACUAGGAGCACCAUUCCGCUGCCAGUGAAGAAAUGAACAAAGAAAAUCUGGGCCAGGCAGGCAUCAAAAGAAAUAGUCUUGCGCUCAACCAGAAAGUCUGUAAUCAUUUUAAGGGUA [A23U U39C]	1.27
GUUAACGGUCAUAGGCCAUGGAUACUAGGAGCACCAUUUCGCCGCCAGUGAAGAAAUGAACAAAGAAAAUCUGGGCCAGGCAGGCAUCAAAAGAAAUAGUCUUGCGCUCAACCAGAAAGUCUGUAAUCAUUUUAAGGGUA [A23U U43C]	1.22
GUUAACGGUCAUAGGCCAUGGAACCUAGGUGCACCAUUUCGCUGCCAGUGAAGAAAUGAACAAAGAAAAUCUGGGCCAGGCAGGCAUCAAAAGAAAUAGUCUUGCGCUCAACCAGAAAGUCUGUAAUCAUUUUAAGGGUA [A24C A30U]	0.99
GUUAACGGUCAUAGGCCAUGGAUACUAGGAGCACCAUUUCGCUGCCAGUGAAGAAAUGAACAAAGAAAAUCUGGGCCAGGCAGGCAUCAAAAGAAAUAGUCUUGCGCUCAACCAGAAAGUCUGUAAUCAUUUUAAGGGUG [A23U A140G]	1.38
GUUAACGGUCAUAGGCCAUGGAUACUAGGAGCACCAUUUCGCUGCCAGUGAAGAAAUGAACAAAGAAAAUCUGGGCCAGGCAGGCAUCAAAAGAAAUAGUCUUGCGCUCAACCAGAAAGUCUGUAAUCAUUUUAAGGGUC [A23U A140C]	1.37
GUUAACGGUCAUAGGCCAUGGAACCUAGGAGCACCAUUUCGCUGCCAGUGAAGAGAUGAACAAAGAAAAUCUGGGCCAGGCAGGCAUCAAAAGAAAUAGUCUUGCGCUCAACCAGAAAGUCUGUAAUCAUUUUAAGGGUA [A24C A55G]	1.52
GUUAACGGUCAUAGGCCAUGGAACCUAGGAGCGCCAUUUCGCUGCCAGUGAAGAAAUGAACAAAGAAAAUCUGGGCCAGGCAGGCAUCAAAAGAAAUAGUCUUGCGCUCAACCAGAAAGUCUGUAAUCAUUUUAAGGGUA [A24C A33G]	1.14
GUUAACGGUCAUAGGCCAUGGAACCUAGGAGCACCAUUUCGCUGCCAGUGUAGAAAUGAACAAAGAAAAUCUGGGCCAGGCAGGCAUCAAAAGAAAUAGUCUUGCGCUCAACCAGAAAGUCUGUAAUCAUUUUAAGGGUA [A24C A51U]	1.33
GUUAACGGUCAUAGGCCAUGGAUACUAGGAGCACCAUUUCGCUGCCAGCGAAGAAAUGAACAAAGAAAAUCUGGGCCAGGCAGGCAUCAAAAGAAAUAGUCUUGCGCUCAACCAGAAAGUCUGUAAUCAUUUUAAGGGUA [A23U U49C]	1.55

Variant	self-cleavage
GUUAACGGUCAUAGGCCAUGGAUACUAGGAGCACCAUUUCGCUGCCAGAGAAGAAAUGAACAAAGAAAAUCUGGGCCAGGCAGGCAUCAAAAGAAAUAGUCUUGCGCUCAACCAGAAAGUCUGUAAUCAUUUUAAGGGUA [A23U U49A]	1.2
GUUAACGGUCAUAGGCCAUGGAACCUAGGAGCACCAUUUCGCUGCCAGUGAAGAAAUGAACAAAGUAAAUCUGGGCCAGGCAGGCAUCAAAAGAAAUAGUCUUGCGCUCAACCAGAAAGUCUGUAAUCAUUUUAAGGGUA [A24C A66U]	1.03
GUUAACGGUCAUAGGCCAUGGAACCUAGGAGCACCAUUUCGCUGCCAGUGAAGAAAUGUACAAAGAAAAUCUGGGCCAGGCAGGCAUCAAAAGAAAUAGUCUUGCGCUCAACCAGAAAGUCUGUAAUCAUUUUAAGGGUA [A24C A59U]	1.57
GUUAACGGUCAUAGGCCAUGGAUACUAGGAGCACCAUUUCCCUGCCAGUGAAGAAAUGAACAAAGAAAAUCUGGGCCAGGCAGGCAUCAAAAGAAAUAGUCUUGCGCUCAACCAGAAAGUCUGUAAUCAUUUUAAGGGUA [A23U G41C]	2.09
GUUAACGGUCAUAGGCCAUGGAUACUAGGAGCACCAUUUCGCUGCCAGUGAAGAAAUGAACAAAGAAAAUCUGGGCCAGGCAGGCAUCAAAAGAAAUAGUCUCGCGCUCAACCAGAAAGUCUGUAAUCAUUUUAAGGGUA [A23U U103C]	0.03
GUUAACGGUCAUAGGCCAUGGAUACUAGGAGCACCAUUUCGCUGCCAGUGAAGAAAUGAACAAAGAAAAUCUGGGCCAGGCAGGCAUCAAAAGAAAUAGUCUUGCGCUCAACCAGAAAGUCUGUAAUCAUUUUAAAGGUA [A23U G136A]	0.85
GUUAACGGUCAUAGGCCAUGGAUACUAGGAGCACCAUUUCGCUGCCAGUGAAGAAAUGAACAAAGAAAAUCUGGGCCAGGCAGGCACCAAAAGAAAUAGUCUUGCGCUCAACCAGAAAGUCUGUAAUCAUUUUAAGGGUA [A23U U87C]	1.08
GUUAACGGUCAUAGGCCAUGGAUACUAGGAGCACCAUUUCGCUGCCAGUGAAGAAAUGAACAAAGAAAAUCUGGGCCAGGCAGGCAACAAAAGAAAUAGUCUUGCGCUCAACCAGAAAGUCUGUAAUCAUUUUAAGGGUA [A23U U87A]	1.36
GUUAACGGUCAUAGGCCAUGGAUACUAGGAGCACCAUUUCGCUGCCAGUGAAGAAAUGAACAAAGAAAAUCUGGGCCAGGCAGGCAUCAAAAGAAAUAGUCUUGCGCUCAACCAGAAAGUCUGUAAUCACUUUAAGGGUA [A23U U130C]	0.7
GUUAACGGUCAUAGGCCAUGGAACCUAGGAGCACCAUUUCGCUGCCAGUGAAGAAAUGAACAGAGAAAAUCUGGGCCAGGCAGGCAUCAAAAGAAAUAGUCUUGCGCUCAACCAGAAAGUCUGUAAUCAUUUUAAGGGUA [A24C A63G]	1.94
GUUAACGGUCAUAGGCCAUGGAUACUAGGAGCACCAUUUCGCUGCCAGUGAAGAAAUGAACAAAGAAAAUCUGGGCCAGGCAGGCAUCAAAAGAAAUAGUCUUGCGCUCAACCAGAAAGUCUGUAAUCAUUUUAAGAGUA [A23U G137A]	1.46
GUUAACGGUCAUAGGCCAUGGAUACUAGGAGCACCAUUUCGCUGCCAGUGAAGAAAUGAACAAAGAAAAUCUGGGACAGGCAGGCAUCAAAAGAAAUAGUCUUGCGCUCAACCAGAAAGUCUGUAAUCAUUUUAAGGGUA [A23U C76A]	0.23
GUUAACGGUCAUAGGCCAUGGAUACUAGAAGCACCAUUUCGCUGCCAGUGAAGAAAUGAACAAAGAAAAUCUGGGCCAGGCAGGCAUCAAAAGAAAUAGUCUUGCGCUCAACCAGAAAGUCUGUAAUCAUUUUAAGGGUA [A23U G29A]	2.77
GUUAACGGUCAUAGGCCAUGGAUACUAGGAGCACCAUUUCGCUGCCAGUGAAGAAAUGAACAAAGAAAAUCUGGGCCAGGCAGGCAUCAAAAGAAAUAGUCUUGCGCUCAACCAUAAAGUCUGUAAUCAUUUUAAGGGUA [A23U G115U]	0.21
GUUAACGGUCAUAGGCCAUGGAACCUAGGAGCACCAUUUCGCUGCCAGUGAAGAAAUGAACCAAGAAAAUCUGGGCCAGGCAGGCAUCAAAAGAAAUAGUCUUGCGCUCAACCAGAAAGUCUGUAAUCAUUUUAAGGGUA [A24C A62C]	2.03
GUUAACGGUCAUAGGCCAUGGAUACUAGGAGCACCAUUUCGCUGCCAGUGAAGAAAUGAACAAAGAAAAUCAGGGCCAGGCAGGCAUCAAAAGAAAUAGUCUUGCGCUCAACCAGAAAGUCUGUAAUCAUUUUAAGGGUA [A23U U72A]	0.41
GUUAACGGUCAUAGGCCAUGGAUACUAGGAGCACCAUUUCGCUGCCAGUGAAGAAAUGAACAAAGAAAAUCUGGGCCAGGCAGGCAUCAAAAGAAAUAGCCUUGCGCUCAACCAGAAAGUCUGUAAUCAUUUUAAGGGUA [A23U U100C]	2.74
GUUAACGGUCAUAGGCCAUGGAUACUAGGAGCACCAUUUCGCUGCCAGUGAAGAAAUGAACAAAGAAAAUCUGGGCCAGGCAGGCAUCAAAAGAAAUAGUCUUGCGCUCAACCAGAAAGUCUGUAAUCAUCUUAAGGGUA [A23U U131C]	1.02
GUUAACGGUCAUAGGCCAUGGAACCUAGGAGCACCAUUUCGCUGCCAGUGAAGAAAUGAACAAGGAAAAUCUGGGCCAGGCAGGCAUCAAAAGAAAUAGUCUUGCGCUCAACCAGAAAGUCUGUAAUCAUUUUAAGGGUA [A24C A64G]	1.74
GUUAACGGUCAUAGGCCAUGGAACCUAGGAGCACCAUUUCGCUGCCAGUGAAGAAAUGAACAAAGAAAAUCUGGGCCAGGCAGGCAUCAGAAGAAAUAGUCUUGCGCUCAACCAGAAAGUCUGUAAUCAUUUUAAGGGUA [A24C A90G]	0.69
